Source: the supplement of paper PMC12667976
± gives the standard error.

B1: library; numbered along this chain (parent)
chain: MATDAALRRLLRLHRTEIAVAVDSAFPLLHALADHDVVPEDKFQETLHLKEKEGCPQAFHALLSWLLTQDSTAILDFWRVLFKDYNLERYGRLQPILDSFPKDVDLSQPRKGRKPPAVPKALVPPPRLPTKRKASEEARAAAPAALTPRGTASPGSQLKAKPPKKPESSAEQQRLPLGNGIQTMSASVQRAVAMSSGDVPGARGAVEGILIQQVFESGGSKKCIQVGGEFYTPSKFEDSGSGKNKARSSSGPKPLVRAKGAQGAAPGGGEARLGQQGSVPAPLALPSDPQLHQKNEDECAVCRDGGELICCDGCPRAFHLACLSPPLREIPSGTWRCSSCLQATVQEVQPRAEEPRPQEPPVETPLPPGLRSAGEEVRGPPGEPLAGMDTTLVYKHLPAPPSAAPLPGLDSSALHPLLCVGPEGQQNLAPGARCGVCGDGTDVLRCTHCAAAFHWRCHFPAGTSRPGTGLRCRSCSGDVTPAPVEGVLAPSPARLAPGPAKDDTASHEPALHRDDLESLLSEHTFDGILQWAIQSMARPAAPFPS

Variants of: B1
Experiment: AIRE transcriptional activation functional score (insulin promoter-GFP; nonsense median 0, synonymous median 1) (normalised score); higher = higher AIRE activity (more reporter activation)
Details: with insulin promoter-GFP reporter in HEK293
Method: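 Deep mutational scan of full-length human AIRE (codon-optimized cDNA, DT-POPCode NNN libraries over three regions) integrated at a Bxb1 landing pad in HEK293 cells carrying an insulin core promoter-GFP reporter at a Flp-In site. Cells were sorted for the top 10% GFP about 14 days after transfection. Variant frequency log-ratios (select vs non-select, TileSeq) were rescaled so that the nonsense median is 0 and the synonymous median is 1, then averaged over biological replicates.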

AIRE transcriptional activation functional score, by site and new letter:
V123: G 1.3 ± 0.27; R 0.872 ± 0.33; H 1.19 ± 0.59; C 1.27 ± 0.17; M 1.72 ± 0.061; N 1.03 ± 0.1; T 0.905 ± 0.51; L 1.28 ± 0.27; K 1.26 ± 0.2; D 1.11 ± 0.33; E 0.862 ± 0.25; I 1.17 ± 0.21; S 0.751 ± 0.44; Q 1.31 ± 0.14; P 0.742 ± 0.58; F 1.33 ± 0.095; Y 1.43 ± 0.12; A 0.886 ± 0.47
A121: P 0.967 ± 0.48; M 1.2 ± 0.16; W 1.54 ± 0.14; K 1.21 ± 0.12; Y 1.59 ± 0.18; T 0.322 ± 0.49; R 0.922 ± 0.42; E 1.35 ± 0.18; L 1.09 ± 0.22; S 1.28 ± 0.72; N 1.1 ± 0.17; I 0.906 ± 0.4; D 0.847 ± 0.36; V 0.67 ± 0.31; F 1.22 ± 0.13; G 1.4 ± 0.15; Q 0.141 ± 0.53; C 1.3 ± 0.16; H 0.141 ± 0.31
P124: K 0.627 ± 0.26; H 0.958 ± 0.27; G 1.27 ± 0.41; I 1.71 ± 0.21; Y 1.81 ± 0.44; A 0.614 ± 0.46; M 1.48 ± 0.096; D 0.6 ± 0.38; S 1.08 ± 0.38; Q 0.964 ± 0.14; L 1.09 ± 0.26; R 0.769 ± 0.43; C 1.15 ± 0.32; V 1.65 ± 0.37; F 1.35 ± 0.25; T 0.68 ± 0.46; W 1.5 ± 0.057; N 0.804 ± 0.27; E 0.934 ± 0.7
K131: N 0.0453 ± 0.36; F 0.0637 ± 0.14; T -0.293 ± 0.16; L -0.159 ± 0.3; I -0.103 ± 0.13; C -0.0234 ± 0.18; D -0.154 ± 0.41; E 0.0987 ± 0.29; P 0.0359 ± 0.37; R -0.372 ± 0.3; G -0.226 ± 0.29; S 0.0229 ± 0.23; H 0.185 ± 0.12; Y 0.0539 ± 0.21; W -0.218 ± 0.026; V 0.174 ± 0.31; M 0.154 ± 0.08; Q -0.125 ± 0.077; A 0.284 ± 0.099
R132: M 0.275 ± 0.13; L -0.017 ± 0.32; I -0.0777 ± 0.2; S 0.00923 ± 0.41; A 0.179 ± 0.53; Q 0.308 ± 0.29; C -0.0301 ± 0.38; G 0.129 ± 0.2; K 0.0662 ± 0.16; E 0.0732 ± 0.14; D 0.252 ± 0.23; N -0.47 ± 0.23; H 0.458 ± 0.6; F -0.0252 ± 0.14; W 0.538 ± 0.051; V -0.3 ± 0.31; T -0.125 ± 0.69; P -0.258 ± 0.42
T130: R 0.316 ± 0.33; D 0.225 ± 0.23; F 1.71 ± 0.24; K 0.531 ± 0.12; E 0.325 ± 0.53; P 1.36 ± 0.33; H 0.621 ± 0.2; N 0.915 ± 0.14; S 1.36 ± 0.41; Y 1.11 ± 0.15; L 1.13 ± 0.48; A 1.78 ± 0.43; I 1.05 ± 0.38; W 1.39 ± 0.29; V 0.747 ± 0.4; G 1.13 ± 0.6; C 1.38 ± 0.32
K120: S 1.21 ± 0.44; L 1.13 ± 0.29; Q 0.232 ± 0.33; A 0.814 ± 0.64; W 1.43 ± 0.041; H 0.932 ± 0.7; C 1.2 ± 0.21; I 1.2 ± 0.15; V 1.01 ± 0.28; R 1.21 ± 0.41; P 1.21 ± 0.39; G 1.12 ± 0.34; Y 1.34 ± 0.37; E 0.943 ± 0.27; D 0.677 ± 0.3; T 1.79 ± 0.48; N 1.29 ± 0.21; F 0.998 ± 0.34; M 1.31 ± 0.077
P125: C 0.918 ± 0.33; G 1.08 ± 0.39; D 0.901 ± 0.16; T 1.42 ± 0.28; S 1.04 ± 0.39; Q 0.768 ± 0.42; K 0.907 ± 0.37; Y 0.77 ± 0.17; L 1.24 ± 0.24; V 1.19 ± 0.25; A 1.25 ± 0.44; E 0.892 ± 0.15; R 0.79 ± 0.34; H 1.27 ± 0.22; I 1.36 ± 0.48; W 1.36 ± 0.14; N 0.92 ± 0.2; F 0.97 ± 0.082; M 1.18 ± 0.048
P126: T 0.134 ± 0.17; N 0.042 ± 0.11; Y -0.0102 ± 0.2; G 1.42 ± 0.35; S 0.0633 ± 0.23; R -0.0135 ± 0.24; C 0.317 ± 0.087; F 0.304 ± 0.22; H 0.139 ± 0.23; Q -0.177 ± 0.055; A 0.621 ± 0.17; I 0.105 ± 0.14; M 0.141 ± 0.079; W 0.0843 ± 0.12; L 0.122 ± 0.14; E 0.762 ± 0.25; V 0.0693 ± 0.094; D 0.773 ± 0.063; K 1.08 ± 0.12
R127: T 0.335 ± 0.37; H 0.326 ± 0.35; C 0.833 ± 0.084; Q 0.887 ± 0.18; F 0.897 ± 0.11; A 0.314 ± 0.39; L 0.607 ± 0.27; Y 0.503 ± 0.099; M 1.1 ± 0.049; E 0.317 ± 0.17; I 0.611 ± 0.18; N 1.09 ± 0.27; G 0.421 ± 0.18; K 0.758 ± 0.21; W 0.912 ± 0.12; S 0.869 ± 0.22; D 0.358 ± 0.12; V 0.801 ± 0.21; P 0.804 ± 0.38
L128: V 1.12 ± 0.24; P 1.17 ± 0.34; W 1.39 ± 0.091; S 0.817 ± 0.16; H 0.857 ± 0.26; Y 1.41 ± 0.52; A 1.19 ± 0.6; Q 0.496 ± 0.2; R 0.525 ± 0.62; G 1.51 ± 0.26; K -0.124 ± 0.14; M 1.32 ± 0.058; T 1.62 ± 0.54; D -0.0224 ± 0.18; F 1.43 ± 0.27; C 1.19 ± 0.3; E 0.0699 ± 0.22; I 1.19 ± 0.19; N 1.02 ± 0.23
P115: Y 0.917 ± 0.29; R 0.784 ± 0.41; K -0.166 ± 0.74; G 0.828 ± 0.45; N 1.02 ± 0.11; W 0.278 ± 0.1; I 0.466 ± 0.77; M 0.979 ± 0.15; Q 1.01 ± 0.35; L 1.2 ± 0.48; H 1.03 ± 0.71; T 0.525 ± 0.52; S 1.58 ± 0.71; F 1.5 ± 0.58; V 1.21 ± 0.51
A117: Q 1.44 ± 1; I 0.777 ± 0.28; V 0.34 ± 0.65; S 0.692 ± 0.59; D 0.179 ± 0.29; N 0.792 ± 0.33; M 0.838 ± 0.066; C 1.1 ± 0.64; W 1.4 ± 0.096; P 0.913 ± 0.48; F 1.04 ± 0.38; Y 1.76 ± 0.24; R 0.501 ± 0.51; T 1.16 ± 0.36; L 1.13 ± 0.4; K 0.457 ± 0.24; E 1.03 ± 0.14; H 1.22 ± 0.48; G 1.22 ± 0.26
V118: Y 1.42 ± 0.34; P 1.47 ± 0.62; A 1.02 ± 0.72; G 0.911 ± 0.38; L 0.953 ± 0.44; I 1.01 ± 0.14; K 0.143 ± 0.23; H 1.74 ± 0.26; T 0.667 ± 0.45; S 0.863 ± 0.49; D 0.403 ± 0.48; C 1.25 ± 0.13; R 0.372 ± 0.4; Q 0.675 ± 0.51; N 0.783 ± 0.28; W 1.13 ± 0.21; M 1.31 ± 0.18; F 1.01 ± 0.24; E 1.08 ± 0.27
L122: S 1.44 ± 0.47; D 1.44 ± 0.14; E 0.827 ± 0.24; V 0.859 ± 0.41; R 0.83 ± 0.43; H 0.431 ± 0.75; Y 1.45 ± 0.31; N 0.335 ± 0.67; T 0.686 ± 0.11; F 1.32 ± 0.15; P 0.586 ± 0.2; C 1.17 ± 0.21; K 0.401 ± 0.17; Q 0.272 ± 0.36; W 0.871 ± 0.048; I 0.612 ± 0.24; M 1.1 ± 0.05; G 1.29 ± 0.35; A 0.747 ± 0.24
P116: K 0.772 ± 0.26; F 1.18 ± 0.075; Q 1.41 ± 0.49; T 0.481 ± 0.99; H 1.15 ± 0.41; Y 1.17 ± 0.12; M 1.1 ± 0.35; R 0.38 ± 0.45; N 2.06 ± 0.3; G 0.577 ± 0.51; E 0.895 ± 0.69; C 1.36 ± 0.37; I 1.36 ± 0.24; L 1.07 ± 0.43; A 0.756 ± 0.5; V 0.906 ± 0.43; D 0.468 ± 0.33; S 1.12 ± 0.27; W 1.13 ± 0.19
P119: F 1.39 ± 0.14; Q 1.02 ± 0.37; K 1.36 ± 0.051; M 0.545 ± 0.12; N 1.04 ± 0.46; I 1.52 ± 0.17; R 0.495 ± 0.34; C 1.04 ± 0.56; G 0.741 ± 0.48; T 1.59 ± 0.55; D 0.86 ± 0.28; H 1.17 ± 0.41; E 1.37 ± 0.17; W 1.58 ± 0.045; A 1.03 ± 0.56; S 0.765 ± 0.48; L 0.904 ± 0.3; V 0.878 ± 0.6; Y 1.63 ± 0.1
P129: G 0.951 ± 0.62; T 1.17 ± 0.79; D 0.0133 ± 0.42; F 0.395 ± 0.1; V 0.215 ± 0.2; M 0.564 ± 0.18; N 0.901 ± 0.6; Y 0.0475 ± 0.46; C 0.895 ± 0.2; R 0.451 ± 0.35; K 1.07 ± 0.73; E -0.0453 ± 0.46; S 0.685 ± 0.55; A 0.717 ± 0.53; I 0.253 ± 0.74; W -0.183 ± 0.087; H -0.142 ± 0.24; L 0.107 ± 0.25; Q 0.651 ± 0.14
